# Results reported in IntAct's records for PubMed 25040622.
# B1: Proline-serine-threonine phosphatase-interacting protein 1 (Homo sapiens), O43586 (parent)
# chain: MMPQLQFKDAFWCRDFTAHTGYEVLLQRLLDGRKMCKDMEELLRQRAQAEERYGKELVQIARKAGGQTEINSLRASFDSLKQQMENVGSSHIQLALTLREELRSLEEFRERQKEQRKKYEAVMDRVQKSKLSLYKKAMESKKTYEQKCRDADDAEQAFERISANGHQKQVEKSQNKARQCKDSATEAERVYRQSIAQLEKVRAEWEQEHRTTCEAFQLQEFDRLTILRNALWVHSNQLSMQCVKDDELYEEVRLTLEGCSIDADIDSFIQAKSTGTEPPAPVPYQNYYDREVTPLTSSPGIQPSCGMIKRFSGLLHGSPKTTSLAASAASTETLTPTPERNEGVYTAIAVQEIQGNPASPAQEYRALYDYTAQNPDELDLSAGDILEVILEGEDGWWTVERNGQRGFVPGSYLEKL
# partner: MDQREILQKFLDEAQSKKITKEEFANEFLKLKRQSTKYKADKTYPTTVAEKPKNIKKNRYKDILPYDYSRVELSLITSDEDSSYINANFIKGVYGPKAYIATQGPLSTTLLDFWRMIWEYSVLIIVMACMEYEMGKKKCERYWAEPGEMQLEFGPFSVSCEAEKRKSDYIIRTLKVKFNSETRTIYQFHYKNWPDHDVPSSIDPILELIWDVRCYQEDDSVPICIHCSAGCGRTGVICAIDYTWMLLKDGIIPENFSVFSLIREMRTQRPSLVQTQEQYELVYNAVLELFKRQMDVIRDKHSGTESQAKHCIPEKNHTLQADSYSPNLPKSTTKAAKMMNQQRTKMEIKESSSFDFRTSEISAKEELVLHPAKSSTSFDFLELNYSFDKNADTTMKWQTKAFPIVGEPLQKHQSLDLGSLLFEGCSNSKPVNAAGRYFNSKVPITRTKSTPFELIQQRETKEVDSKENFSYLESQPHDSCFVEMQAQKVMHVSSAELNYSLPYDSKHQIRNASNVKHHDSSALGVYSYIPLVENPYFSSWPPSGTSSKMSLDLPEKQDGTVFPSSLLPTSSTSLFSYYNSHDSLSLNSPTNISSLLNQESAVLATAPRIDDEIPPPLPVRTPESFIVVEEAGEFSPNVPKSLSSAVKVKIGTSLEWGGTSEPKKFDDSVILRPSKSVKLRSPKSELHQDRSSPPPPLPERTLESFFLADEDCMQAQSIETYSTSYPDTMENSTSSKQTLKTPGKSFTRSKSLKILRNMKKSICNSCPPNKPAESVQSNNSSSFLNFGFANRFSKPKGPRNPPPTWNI
# Variants of: B1
# Settings: with ptn22_human PTPN22, Q9Y2R2
row,effect of a mutation on the interaction,Variant
1,disrupting interaction,W232A

# Variants of: B1
# Settings: with ptn22_human PTPN22, Q9Y2R2
# Remark: another data set of the same source
row,effect of a mutation on the interaction,Variant
1,disrupting interaction,E250Q
